Experimental data published in patent US20040087498A1, “Modified factor VII” (Novo Nordisk Health Care AG, priority 1991, published 2004).
Several values for one entry are separate records, joined by “and”; a condition that tells them apart may be missing. Equal entries are not always repeated.

Tests used:
[1] = ELISA for DEGR-FVIIa in rabbit plasma; type: in vivo; conditions: for FVIIa ELISA, DEGR-FVIIa in rabbit plasma, individual animals: listed as DEGR-FVIIa
Description: The test drug delivery for the animals consisted of an initial bolus injection immediately prior to balloon angioplasty, followed by a continuous systemic infusion by osmotic pump via the internal jugular vein. The duration of the drug infusion was 3 days. The control animals received heparin, 150 U/kg IV bolus, prior to balloon angioplasty followed by saline infusion. The DEGR-FVIIa treated animals received a 1 mg/kg bolus injection followed by 50 μg/kg/hr infusion.
Prothrombin time and concentration of DEGR-FVIIa in the blood were determined at immediately pre-bolus injection of the test compound, 1 hr post bolus injection, and at 3 days at the end of continuous infusion. One to two mls of citrated plasma was obtained and the prothrombin times and antigen levels determined.
An ELISA assay was used to determine the concentration of DEGR-FVIIa in plasma samples from the control and DEGR-FVIIa treated rabbits. The assay involved first diluting an anti-human FVII monoclonal antibody (Dr. W. Kisiel, U. of New Mexico) to 2.0 μg/ml in 0.1 M carbonate buffer pH 9.6, and adding 100 μl/well to 96-well plates. The plates were then incubated at 4° C. overnight and subsequently washed two times using wash buffer (PBS, pH 7.4, containing 0.05% Tween 20).
After blocking, a standard dilution series of DEGR-FVIIa ranging from 20-0.027 ng/ml was added, along with a dilution series of the test rabbit plasma (1:100 to 1:4000 in blocking buffer) applied at 100 μl/well. Non-immune rabbit plasma was used as a negative control. Plates were then incubated for 1 hr at 37° C. followed by four washes with wash buffer.
DEGR-FVIIa was detected by adding 100 μl/well of a 1:1,000 dilution of rabbit anti-human FVII polyclonal antibody (Dr. Kisiel, U. New Mexico) in blocking buffer. Plates were incubated for 1 hr at 37° C., followed by five washes with wash buffer. Specific antibody binding was detected using 100 μl/well of a 1:2,000 dilution of goat anti-rabbit IgG antibody-peroxidase conjugate (Tago, Inc.). Plates were incubated for 1 hr at 37° C. and washed six times with wash buffer. Finally, 100 μl of substrate solution was added (0.42 mg/ml of o-phenylenediamine dihydrochloride [OPD] in 0.2 M citrate buffer, pH 5.0, containing 0.3% H2O2). After 1-3 min at room temp. the color reaction was stopped by adding 100 μl/well of 1N H2SO4 and the plates were read at 490 nm on a Microplate spectrophotometer. The concentration of DEGR-FVIIa in the plasma samples was determined by comparing the A490 values of the unknown to those of the DEGR-FVIIa standard curve.

[2] = system: tissue factor (TF) and activated Factor VII (FVIIa) mediation of vascular lesion formation; assay: Vascular lesion formation after carotid endarterectomy in baboons; type: in vivo; conditions: baboon
Description: Measurements were performed for vascular lesion formation on day 30. The results in 5 treated animals were compared with the findings in 5 concurrent vehicle buffer-infused controls.
Under halothane anesthesia and sterile operating conditions, animals labeled with autologous ^111In-platelets received intravenous infusions of DEGR-FVIIa using the tether system for continuous intravenous administration (initial bolus injection of 1 mg/kg followed by continuous intravenous infusion of 50 μg/kg/hr. The animals received surgical carotid endarterectomy, bilateral brachial artery or bilateral femoral artery Fogarty balloon catheter angioplasties.
The DEGR-FVIIa was administered for 7 or 30 days by continuous infusions via venous catheter using the tether system. Thirty days after surgery the animals were anesthetized with halothane and underwent in situ pressure-perfusion fixation with 4% paraformaldehyde containing 0.1% glutaraldeyde for 30 min. […]
Carotid endarterectomy was performed through a midline neck incision using the technique of Hanson et al., Hypertension 18:I170-I-176 (1991) and Krupski et al., Circulation 84:1749-1757 (1991), incorporated herein by reference. […] The endarterectomy was then performed beginning 1 cm from the divided end of the everted vessel segment and continued for a measured distance of 1 cm. […]

[3] = system: fibrin deposition associated with endotoxemia; assay: Fibrin deposition in kidneys and lungs in rabbits; type: in vivo, rabbit
gram-negative bacteremia = assay: Survival of treated baboons; type: in vivo, baboon

## DEGR-Factor VIIa: Recombinant human Factor VIIa with its active site derivatized by Dansyl-L-Glu-Gly-Arg-chloromethyl Ketone (DEGRck)
[1]; 1 hour after 1 mg/kg bolus, 50 μg/kg/hr infusion
  FVIIa ELISA, DEGR-FVIIa in rabbit plasma, individual animals: 3,210 ng/ml and 4,950 ng/ml and 4,543 ng/ml and 4,900 ng/ml and 4,600 ng/ml and 2,145 ng/ml and 2,830 ng/ml
[1]; 3 days, end of 50 μg/kg/hr infusion
  FVIIa ELISA, DEGR-FVIIa in rabbit plasma, individual animals: 102 ng/mL and 7 ng/mL and 661 ng/mL and 117 ng/mL and 502 ng/mL and 212 ng/mL and 228 ng/mL
[1]; Pretreatment
  FVIIa ELISA, DEGR-FVIIa in rabbit plasma, individual animals: 0 ng/ml and 1 ng/ml and 13 ng/ml (2×) and 65 ng/ml and 4 ng/ml and 9 ng/ml
[1]; rabbit, 1 hr time point, range over animals
  DEGR-FVIIa antigen level in the plasma: 2 to 6 µg/mL
[2]; treated for 30 days, examined at 30 days
  intimal area: A similar result
[2]; treated for seven days, studied at 30 days, versus control
  intimal area: significantly decreased
[3]
  fibrin deposition in kidneys and lungs: dose-response effect for blocking fibrin deposition in kidneys and lungs
gram-negative bacteremia
  survival: prolong survival of treated animals
